Earlier results, collected in article PMC2930029.
Read-outs that look alike come from different tables or passages of the source.

Columns and labels:
C3b C3b (Homo sapiens) [1] = biological target: C3b C3b (Homo sapiens) (UniProt P01024); experiment: SPR
C3b C3b (Homo sapiens) [2] = biological target: C3b C3b (Homo sapiens) (UniProt P01024)

C3b C3b (Homo sapiens), sequence (P01024 566-670): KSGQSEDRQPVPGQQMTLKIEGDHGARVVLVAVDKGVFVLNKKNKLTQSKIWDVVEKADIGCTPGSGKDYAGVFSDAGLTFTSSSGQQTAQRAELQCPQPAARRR
Efb, sequence (P68799 30-165): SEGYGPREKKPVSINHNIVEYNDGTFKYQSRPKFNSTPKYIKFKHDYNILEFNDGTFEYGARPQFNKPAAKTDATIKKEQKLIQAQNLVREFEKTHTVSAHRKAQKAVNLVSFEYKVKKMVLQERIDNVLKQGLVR
Factor H fH(1-4), sequence (P08603 19-264): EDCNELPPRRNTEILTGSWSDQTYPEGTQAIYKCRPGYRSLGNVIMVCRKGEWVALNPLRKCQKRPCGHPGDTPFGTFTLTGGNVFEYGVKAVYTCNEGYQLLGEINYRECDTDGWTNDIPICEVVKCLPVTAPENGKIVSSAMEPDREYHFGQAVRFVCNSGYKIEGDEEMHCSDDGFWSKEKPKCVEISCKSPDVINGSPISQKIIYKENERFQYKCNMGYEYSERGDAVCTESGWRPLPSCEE
SCIN, sequence (A7X482 32-116): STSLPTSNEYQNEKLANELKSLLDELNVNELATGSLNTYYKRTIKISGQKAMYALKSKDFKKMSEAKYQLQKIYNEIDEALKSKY

Row | Substance | Kd (C3b C3b (Homo sapiens) [1]) [nM] | Kd (C3b C3b (Homo sapiens) [2]) [nM]
1 | SCIN (from UniProt A7X482) | 180 | 
2 | Efb (from UniProt P68799) | 10 | 
3 | Factor H fH(1-4) (from UniProt P08603) |  | 11000
